According to US20220282217A1 (BIONTECH US, published 2022):

Assays:
HLA-A24.02 = target: T1, HLA-A24.02 (human); experiment: competition vs radiolabeled reference peptide on purified MHC I, gel filtration
T1 construct: As for HLA-A02.01
Description: (§1) Peptides were incubated at varying concentrations with these complexes for 2 days, and the amount of remaining radiolabeled peptide bound to […] was measured using size exclusion gel-filtration.

HLA-B07.02 = target: T2, HLA-B07.02 (human); experiment: competition with radiolabeled reference peptide, purified MHC I
T2 construct: Purified class I MHC
Description: as §1

[1] = target: T3, HLA class I molecule B07.02; experiment: competition with radiolabeled reference peptide on purified MHC I
T3 construct: Purified MHC class I complex; also called HLA-B07:02
Description: as §1

HLA-B08.01 = target: T4, HLA-B08.01 (human); experiment: pMHC-I dissociation half-life, 125I-b2m
T4 construct: Purified class I MHC
Description: (§2) Briefly, synthetic genes encoding biotinylated MHC-I heavy and light chains are expressed in E. coli and purified from inclusion bodies using standard methods. […] These reactions are carried out in streptavidin coated microplates to bind the biotinylated MHC-I heavy chains to the surface and allow measurement of radiolabeled light chain to monitor complex formation. Dissociation is initiated by addition of higher concentrations of unlabeled light-chain and incubation at 37° C. Stability is defined as the length of time in hours it takes for half of the complexes to dissociate, as measured by scintillation counts.

HLA-A02.01 [2] = target: T5, HLA-A02.01 (human); experiment: pMHC-I dissociation half-life, 125I-b2m
T5 construct: Purified class I MHC
Description: as §2

HLA-A02.01 [3] = target: T5, HLA-A02.01; experiment: competition with radiolabeled reference peptide, purified MHC I
Description: as §1

[4] = target: T6, HLA class I molecule B08.01; experiment: pMHC-I dissociation assay with 125I-labeled beta2m light chain at 37 C, scintillation counts; time in hours for half of the complexes to dissociate
T6 construct: Purified MHC class I complex; also called HLA-B08:01
Description: as §2

[5] = target: T7, HLA class I molecule A02.01; experiment: competition with radiolabeled reference peptide on purified MHC I
T7 construct: Purified MHC class I complex; also called HLA-A02:01
Description: as §1

[6] = target: T6, HLA class I molecule B08.01; experiment: pMHC-I dissociation half-life, 125I-b2m
Description: as §2

[7] = target: T7, HLA class I molecule A02.01; experiment: pMHC-I dissociation half-life, 125I-b2m
Description: as §2

[8] = target: T8, HLA class I molecule A01.01; experiment: competition with radiolabeled reference peptide on purified MHC I
T8 construct: Purified MHC class I complex; also called HLA-A01:01
Description: as §1

[9] = target: T9, HLA class I molecule A03.01; experiment: as above
T9 construct: Purified MHC class I complex; also called HLA-A03:01
Description: as §1

[10] = target: T10, HLA class I molecule A24.02; experiment: as above
T10 construct: Purified MHC class I complex; also called HLA-A24:02
Description: as §1

B1: GFKLFSCLSF (peptide)
peptide: GFKLFSCLSF
notes: also called C15ORF40(+1)
- IC50 (HLA-A24.02): 0.643 µM

B2: ALKKLRSPL (peptide)
peptide: ALKKLRSPL
notes: also called SMAP1(-1)
- IC50 (HLA-B07.02): 0.223 µM

B3: EYMANGSLL (peptide)
peptide: EYMANGSLL
notes: also called BTK, C481S
- IC50 (HLA-A24.02): 0.005 µM

B4: HVLPEPHLAL (peptide)
peptide: HVLPEPHLAL
notes: also called GATA3 . . ; CSNH
- IC50 [1]: 1.33 µM

B5: RRMPPCLANF (peptide)
peptide: RRMPPCLANF
notes: also called C15ORF40(+1)
- IC50 (HLA-A24.02): 0.141 µM

B6: GPPRPPRAAC (peptide)
peptide: GPPRPPRAAC
notes: also called LMAN1(+1)
- IC50 [1]: 0.0486 µM

B7: GMNQRPILTI (peptide)
peptide: GMNQRPILTI
notes: also called TP53, R248Q
- Stability (T1/2 (h)) (HLA-B08.01): 0 h
- Stability (T1/2 (h)) (HLA-A02.01 [2]): 0.4 h
- IC50 (HLA-A02.01 [3]): 0.709 µM

B8: GMNWRPILTI (peptide)
peptide: GMNWRPILTI
notes: also called TP53, R248W
- Stability (T1/2 (h)) (HLA-B08.01): 0 h

B9: SMNRRPILT (peptide)
peptide: SMNRRPILT
notes: also called TP53, G245S
- Stability (T1/2 (h)) (HLA-B08.01): 0 h
- Stability (T1/2 (h)) (HLA-A02.01 [2]): 0 h
- IC50 (HLA-A02.01 [3]): 3.84 µM

B10: FLKAESKIM (peptide)
peptide: FLKAESKIM
notes: also called GATA3 . . ; CSNH
- Observed MHC Stability [4]: 1.2 h

B11: PPRPPRAAC (peptide)
peptide: PPRPPRAAC
notes: also called LMAN1(+1)
- IC50 [1]: 0.0328 µM

B12: IMKPKRDGYM (peptide)
peptide: IMKPKRDGYM
notes: also called GATA3 . . ; CSNH
- Observed MHC Stability [4]: 0.4 h

B13: FFCYILNTMF (peptide)
peptide: FFCYILNTMF
notes: also called CNOT1(-1)
- IC50 (HLA-A24.02): 0.0734 µM

B14: LQVLHECNSL (peptide)
peptide: LQVLHECNSL
notes: also called MEK, P124L
- IC50 [5]: 4.72 µM
- Stability (T1/2 (h)) [6]: 0 h
- Stability (T1/2 (h)) [7]: 0 h

B15: ILDTAGHEEY (peptide)
peptide: ILDTAGHEEY
notes: also called KRAS, Q61H
- IC50 [8]: 0.0642 µM

B16: ILDTAGKEEY (peptide)
peptide: ILDTAGKEEY
notes: also called NRAS, Q61K
- IC50 [8]: 0.0143 µM

B17: ILDTAGREEY (peptide)
peptide: ILDTAGREEY
notes: also called NRAS, Q61R
- IC50 [8]: 0.007 µM

B18: ILDTAGLEEY (peptide)
peptide: ILDTAGLEEY
notes: also called KRAS, Q61L
- IC50 [8]: 0.0086 µM

B19: FFFCWILSCK (peptide)
peptide: FFFCWILSCK
notes: also called NDUFC2 (-KCDT14)(+1)
- IC50 [9]: 0.597 µM

B20: RPLQTHVLPE (peptide)
peptide: RPLQTHVLPE
notes: also called GATA3 . . ; CSNH
- IC50 [1]: 2.53 µM

B21: TTNAFSGEY (peptide)
peptide: TTNAFSGEY
notes: also called RAC1, P29S
- IC50 [8]: 0.0044 µM

B22: KSRQNHLQL (peptide)
peptide: KSRQNHLQL
notes: also called SMAP1(-1)
- IC50 (HLA-B07.02): 0.078 µM

B23: LLALWECSL (peptide)
peptide: LLALWECSL
notes: also called MSH3(-1)
- Stability (T1/2 (h)) [6]: 0 h
- Stability (T1/2 (h)) [7]: 4 h

B24: LLYITAFFLL (peptide)
peptide: LLYITAFFLL
notes: also called NDUFC2 (-KCDT14)(-1)
- IC50 [5]: 0.323 µM
- IC50 [10]: 0.0601 µM

B25: KFPELLCVW (peptide)
peptide: KFPELLCVW
notes: also called β2M, . . ; SIRH
- IC50 (HLA-A24.02): 0.0137 µM

B26: RVQNQGHLL (peptide)
peptide: RVQNQGHLL
notes: also called UBR5(-1)
- IC50 (HLA-B07.02): 0.827 µM

B27: YTTNAFSGEY (peptide)
peptide: YTTNAFSGEY
notes: also called RAC1, P29S
- IC50 [8]: 0.0105 µM

B28: VLWTTPPLQH (peptide)
peptide: VLWTTPPLQH
notes: also called GATA3 . . ; CSNH
- IC50 [9]: 0.016 µM

B29: FLKAESKIMF (peptide)
peptide: FLKAESKIMF
notes: also called GATA3 . . ; CSNH
- Observed MHC Stability [4]: 0 h

B30: RMPPCLANF (peptide)
peptide: RMPPCLANF
notes: also called C15ORF40(+1)
- IC50 (HLA-A24.02): 0.0087 µM

B31: NQRPILTII (peptide)
peptide: NQRPILTII
notes: also called TP53, R248Q
- Stability (T1/2 (h)) (HLA-B08.01): 0 h

B32: QVLHECNSL (peptide)
peptide: QVLHECNSL
notes: also called MEK, P124L
- IC50 [5]: 7.77 µM
- Stability (T1/2 (h)) [6]: 0 h
- Stability (T1/2 (h)) [7]: 0.5 h

B33: QPVLWTTPPL (peptide)
peptide: QPVLWTTPPL
notes: also called GATA3 . . ; CSNH
- IC50 [1]: 0.109 µM

B34: GSNEVTTRY (peptide)
peptide: GSNEVTTRY
notes: also called RBM27(+1)
- IC50 [8]: 0.606 µM

B35: EPHLALQPL (peptide)
peptide: EPHLALQPL
notes: also called GATA3 . . ; CSNH
- IC50 [1]: 0.017 µM

B36: MFLKAESKI (peptide)
peptide: MFLKAESKI
notes: also called GATA3 . . ; CSNH
- IC50 [10]: 0.332 µM

B37: LLYITAFFL (peptide)
peptide: LLYITAFFL
notes: as for B24
- IC50 [5]: 0.713 µM
- Stability (T1/2 (h)) [6]: 0 h
- Stability (T1/2 (h)) [7]: 17 h

B38: LYITAFFLL (peptide)
peptide: LYITAFFLL
notes: as for B24
- IC50 [10]: 0.0001 µM

B39: KLSDSRTAL (peptide)
peptide: KLSDSRTAL
notes: also called FRG1B, I1OT
- Stability (T1/2 (h)) [6]: 0 h

B40: TGSNEVTTRY (peptide)
peptide: TGSNEVTTRY
notes: also called RBM27(+1)
- IC50 [8]: 15.5 µM

B41: VPAVPFDLHF (peptide)
peptide: VPAVPFDLHF
notes: also called GATA3 . . ; CSNH
- IC50 [1]: 2.11 µM

B42: RLSSVLQRF (peptide)
peptide: RLSSVLQRF
notes: also called β2M, . . ; SQIS
- IC50 (HLA-A24.02): 0.0282 µM

B43: LYITAFFFCW (peptide)
peptide: LYITAFFFCW
notes: as for B19
- IC50 [10]: 0.0453 µM

B44: MLTDSLFLPI (peptide)
peptide: MLTDSLFLPI
notes: also called VHL, QCIL
- Stability (T1/2 (h)) (HLA-B08.01): 0 h

B45: SMNRRPILTI (peptide)
peptide: SMNRRPILTI
notes: also called TP53, G245S
- Stability (T1/2 (h)) (HLA-B08.01): 0 h

B46: ESKIMFATL (peptide)
peptide: ESKIMFATL
notes: also called GATA3 . . ; CSNH
- Observed MHC Stability [4]: 1.3 h

B47: LPQARLCLI (peptide)
peptide: LPQARLCLI
notes: also called MSH3(-1)
- IC50 [1]: 0.0726 µM

B48: LYGLLLEML (peptide)
peptide: LYGLLLEML
notes: also called ESR1, D538G
- IC50 (HLA-A24.02): 0.0008 µM

B49: LPRKPTRAA (peptide)
peptide: LPRKPTRAA
notes: also called TP53, QPSL
- Stability (T1/2 (h)) (HLA-B08.01): 0 h

B50: CMGGMNQRPI (peptide)
peptide: CMGGMNQRPI
notes: also called TP53, R248Q
- Stability (T1/2 (h)) (HLA-B08.01): 0 h
- Stability (T1/2 (h)) (HLA-A02.01 [2]): 0 h
- IC50 (HLA-A02.01 [3]): 3.67 µM

B51: CMGGMNWRPI (peptide)
peptide: CMGGMNWRPI
notes: also called TP53, R248W
- Stability (T1/2 (h)) (HLA-B08.01): 0 h

B52: MNWRPILTI (peptide)
peptide: MNWRPILTI
notes: also called TP53, R248W
- Stability (T1/2 (h)) (HLA-B08.01): 0 h

B53: LYITAFFLLD (peptide)
peptide: LYITAFFLLD
notes: as for B24
- IC50 [10]: 0.0004 µM

B54: LHFCRSSIM (peptide)
peptide: LHFCRSSIM
notes: also called GATA3 . . ; CSNH
- Observed MHC Stability [4]: 0 h
